This data set in a line: soluble on expression in E. coli; label from the status in PepcDB or PDB records.
Consider “MTKITVLSGKGGTGKTTVSVNMAKALSESYRVQLLDADVEEPNDHIFFNVDVSFEEPVHLMIPVVDNSVCIRCGECASTCQFGAISVFPSGTFVFESLCHGCGACSIMCPVNAISERPKEIGKIRFGTADGNISFGMGILNIGERTGVPVIRKLKKHIDEKADVVIVDAPPGTSCPVVESLRNTDFALLVTEPTAFGLHDLKLAVELTKEMGIPSGIVVNRYIPGNTIIEEFADEEGIPVLLKIPFKREIASLCAEGKLIVEAFQDMKKDFLELFEKIEVMVRLEHHHHHH”, for which the “soluble on expression in E. coli” value is on record as “soluble”.
As for “MTKKDKKAKGPKMSTITTKSGESLKVFEDLHDFETYLKGETEDQEFDHVHCQLKYYPPFVLHDAHDDPEKIKETANSHSKKFVRHLHQHVEKHLLKDIKTAINKPELKFHDKKKQESFDRIVWNYGEETELNAKKFKVSVEVVCKHDGAMVDVDYKTEPLQPLI”, the “soluble on expression in E. coli” value was “soluble”.
To “MTKKKAHKPGSATIALNKRARHEYFIEEEFEAGLALQGWEVKSLRAGKANISDSYVLLRDGEAFLFGANITPMAVASTHVVCDPTRTRKLLLNQRELDSLYGRVNREGYTVVALSLYWKNAWCKVKIGVAKGKKQHDKRSDIKEREWQVDKARIMKNAHR” belongs “soluble”; to “MTKKVGVGQAHSKIILIGEHAVVYGYPAISLPLLEVEVTCKVVSAESPWRLYEEDTLSMAVYASLEYLDITEACVRCEIDSAIPEKRGMGSSAAISIAAIRAVFDYYQADLPHDVLEILVNRAEMIAHMNPSGLDAKTCLSDQPIRFIKNVGFTELEMDLSAYLVIADTGVYGHTREAIQVVQNKGKDALPFLHALGELTQQAEVAISQKYAEGLGLIFSQAHLHLKEIGVSSPEADFLVETALSYGALGAKMSGGGLGGCIIALVTNLTHAQELAERLEEKGAVQTWIESL”, “not soluble”.
To “MTKLNAFLDTLGEGIRQKFWDIVAAAKTDAQTNLPSDKAKELAGEVISDFEQGNLFKSHQEISAELKSKFESLDDADKAAVKNLAKVYGKQAKALVMPHLPEDCKAKTDATDDAGKAAVAGGFDTGDYLPRKKRELLFIDNLTAAFREMRSRRGF” belongs “not soluble”; to “MTKPVLQDGETVVCQGTHAAIASELQAIAPEVAQSLAEFFAVLADPNRLRLLSLLARSELCVGDLAQAIGVSESAVSHQLRSLRNLRLVSYRKQGRHVYYQLQDHHIVALYQNALDHLQECR”, “soluble”; to “MTKQIKVGVIGVGQMGQYHAEIYQKLPQVELVAICEFNDERRAEMAEKFQCKAYKDYHELLANTEIEAVIIVLPDNMHRDCVEEAVKHKKHILLEKPLAKELEDGKAMYELTKDYDKVFTVGFLLRFDPRFNMIKQRLDNGELGDIIHLYCRRNSPITGPKRYIGASDLSMHVMIHDIDYINWYMDSEPVKVIAKSRSVLLKEYGMNDVIYAIVTYENGAIACLEACWVLPENSPTIIDDKLELVGTKGVAYVDSCDHGVRFVSEKGVSYPDSRHWYYTNGEVSGDLAEEVMAFINNVANNTKSIITPKEAYDSLRVVDAIERSIAEGKEVSL”, “not soluble”.
“MTKQTKYVQTVIDELATKGVEALDAMANFTQEQVDHIVHQAAIAALDKHMYLAKLAVDETGRGIYEDKAIKNMYASEYIWNSIKYDKPVGVIAEDKEQGLVSIAEPVGVICGVTPTTNPTSITIFKALIAL”: the “soluble on expression in E. coli” value is “not soluble”.
Consider “MTKSLFRQSFLTDTLDVHIDVAPAEQVLSNGVQLKLYQRGVLEVIPENPTQETKNIIISCGIHGDETAPMELVDSIIKDIESGFQKVDARCLFIIAHPESTLAHTRFLEENLNRLFDEKEHEPTKELAIADTLKLLVRDFYQDTEPKTRWHLDLHCAIRGSKHYTFAVSPKTRHPVRSKALVDFLDSAHIEAVLLSNSPSSTFSWYSAENYSAQALTMELGRVARIGENALDRLTAFDLALRNLIAEAQPEHLSKPCIKYRVSRTIVRLHDDFDFMFDDNVENFTSFVHGEVFGHDGDKPLMAKNDNEAIVFPNRHVAIGQRAALMVCEVKTRFEEGELVYDLEHHHHHH”, for which the “soluble on expression in E. coli” value is listed as “soluble”.
With “MTKSQIMDLSNFYQDTDYPSGRLIALLILSLGLTPAEIANLKKADFDTTFNILSIEKSQMKRILKLPEDLLPFLLESLEEDGDLVFEHNGKPYSRQWFFNQLTDFLNEKNEQQLTAQLLREQFILKQKENGKTMTELSRLLGLKTPITLERYYRLEHHHHHH”, the “soluble on expression in E. coli” value is on record as “not soluble”.
For “MTKTWEQLSAIQPIGVKMLMNSIAKERISHAYLLEGEKGTGKFATAIQMAKSFLCSQRNRVEPCHVCTNCKRIDSGNHPNLHIVKPDGLSIKKQQIHDLQEEFSKTGLEANKKVYIIEHADRMTANAANALLKFLEEPSSDTTAILLTEQSHQILNTILSRCQVVTFRPLPTESLIRRLQDEGITVSLSTLAAQLTNSFDEALTLCNDEWFAQARALVIKLCEALEKDKASIFFVQEKWGKHFGEKEQLQQGLDMLLLIYKDLLYVQLGEEDRLVFREQKEMFESFSYAQKRIVSALFNILEAKNRINANVNAQLVFEQLVLRLQEG” the value was “not soluble”.
For “MTKVQKRLFEVADKQYALFQAKLIPNIPQERVIGVRVPVLRKIAREFEKEPECRDFLNTLPHAYYDENMLHSILLSNVKNYEECIAAVEAFLPYVDNWAVCDTLRPKVFGKHKDKLLPRIKDWIASDKTYTCRFGIGMLMMHYLDKDFKPEYLELPQKVDSEEYYVKMMIAWFYATALANQWDATIPYIEEHRLSDWVHKKTIQKACESYRITDEQKAYLKTLR” the value was “not soluble”.
As to “MTLDANSAPVRDMASAHFSPGEDCRRKIRDLCRQARISVDICVFTISDDQLSDEIRACHQRGVAVRVISDSEKQFDVGSDIAALREAGVPVRIDDTPFHMHHKFAVFDGRTLLNGSFNWTRSATTGNEENLLVIDHPQLVASYLKEFNELWSRYAPRLEHHHHHH”, the “soluble on expression in E. coli” value is given as “not soluble”.
Turning to “MTLEISNDYGKIDISNEVIASVVGGKAVECYGIVGMASRQQVRDGIAEILGHENYAKGIKVTENNGVVDIDMYIIVSYGVKISEVANNVQSTVKYTLEKSLNVSVNSINIYVQGVRVNNTGKKALEHHHHHH”, the “soluble on expression in E. coli” value is “not soluble”.
For “MTLETAFMLPVQDAQHSFRRLLKAMSEPGVIVALHQLKRGWQPLNIATTSVLLTLADNDTPVWLSTPLNNDIVNQSLRFHTNAPLVSQPEQATFAVTDEAISSEQLNALSTGTAVAPEAGATLILQVASLSGGRMLRLTGAGIAEERMIAPQLPECILHELTERPHPFPLGIDLILTCGERLLAIPRTTHVEVC” the value was “soluble”; for “MTLGELREEVWNALARYDLALHPTPPHGHHPNFLGARRAAERLLKTPEFQGARRVLAGMDAVLKPLREEALRQGKELLLPHPDRPGEFLLLRDVDPRKLKRVREAYRFGVRVALEEATPDLVLIGAVAVDEEGGWVGKGYGFPQSWLRVEAPFATLAHPVMVYPRLPVPPERRVDLIATPQRLLRLG”, “soluble”.
As for “MTLLLPRRRFSALLDHIKNWTSSIRADKQYRSFSTGDLVSPSQPSAFEPDFMEMEFGATPTTSSLPSHFDDNDLVPVEFKKSGVKLIPQGTRKAEKAKKFGSFEELSKVKLEDIHRAQSWFFVDVDPKSAERILMSNGFSDSSFLISFFRQKYVLSIWRKTKVEHLVIRNYQKKNGTMAFQLDIDRSFKNLVELTEYYTKNKSYVLCTKLSKGVSRPRRNPDTRTRA”, the “soluble on expression in E. coli” value is recorded as “not soluble”.
For “MTLSGGTIDILKTRSLAKLQGSKEVMKQKLEIPIHGSVTDNIFSEVRDSFRRNFTEGWEKAGAAFCVIHKGKVIVDLWGGYADKECFKEWKEDTISTIFSCTKSVTAICFAILVDRGLLKYSDKVTKYWPEFGQNGKQDITIEMVLSHTAGLPYFPGVKFTEEDLTDNNKLSHMIENLKPVFAPGTRTAYHALTFGWLTDQIFRRVDSQKRTVGQFFKDEIATKHYIDIHIGECSNEENRLARLFKCPATLVSREIAYDRSILKLARYYYNPRGLFAAARRNLSLHGSDFTMFNNSDLRVVGQPAVNGIGSARAMAQLHQLVLDGTLLSKETFDIIKHPRKMTSFDYLIGEPQNKEHGFTYFKSPLNTWQFGHPGVGGQMVRVDVENDLIVAYLTNGMKTAGCEDHVFTFNRLQRKVYECLKRIPKFELPPPEDIVENE”, the “soluble on expression in E. coli” value was “not soluble”.
Consider “MTLTASSSSRAVTNSPVVVALDYHNRDDALAFVDKIDPRDCRLKVGKEMFTLFGPQFVRELQQRGFDIFLDLKFHDIPNTAAHAVAAAADLGVWMVNVHASGGARMMTAAREALVPFGKDAPLLIAVTVLTSMEASDLVDLGMTLSPADYAERLAALTQKCGLDGVVCSAQEAVRFKQVFGQEFKLVTPGIRPQGSEAGDQRRIMTPEQALSAGVDYMVIGRPVTQSVDPAQTLKAINASLQRSA”, for which the “soluble on expression in E. coli” value was “soluble”.
In the case of “MTMNHDDRLRNRYEACRSGMQELDMLRAKHTLLIQNLRSRLPIIPGSLDDVQTREKKTRDVFLDRFSLQSVDSGISSQNTISSTRSSTPEDFKTSNRHSNIYENSSTTMNYSTFRKMSLESTHSSVSHSMQNDVEKTSFAPPVITSRSCHRGAWKTSPQRIRPKSMFDSTTSNTEYLFSKPPRHPIDLTKERRSAFTVLNQSSKRHSSIEPSLPSTLSQLSLNDEAKTPQKAEVIRWNKQKADAMFRANVVYVSSTEQPTKPAPLRFSPARSPPVRRALPIELKPTQHFAQPCKIRSPKLNTKTVFAAKPIAVRPSISPKVAQRSTWLQSQPL”, the “soluble on expression in E. coli” value is “not soluble”.
To “MTMPYYASAEQIMRDRSELARKGIARGRSVVVLTFRDGVLFVAENPSTALHKVSELYDRLGFAAVGKYNEFENLRRAGIVHADMRGYSYDRRDVTGRSLANAYAQTLGTIFTEQPKPYEVEICVAEVGRVGSPKAPQLYRITYDGSIVDEQHFVVMGGTTEPIATAMRESYRADLDLEAAVGIAVNALRQGGAGEGEKRNVDVASLEVAVLDQSRPRRAFRRIAGTALEQLVPAEPAAASESAPEPKPDTETKPADTQD” belongs “soluble”; to “MTNATIAPTTTAAPVTKSVDAPTADENTPLFSPSLISPDVLAVLPADYTIRPLCRSDYKRGYLDVLRVLTTVGDINEEQWNSRYEWIRARSDEYYLLVVCDGEGRIVGTGSLVVERKFIHSLGMVGHIEDIAVEKGQQGKKLGLRIIQALDYVAEKVGCYKTILDCSEANEGFYIKCGFKRAGLEMAHYY”, “soluble”; to “MTNDDKCTSFFDKNYQTPEFIENKKRQAQQGRRRFLKSAAGMGALASLPALSVSAKAQTSLNELLKTLVKTDPWLTLDATLNQLLPSSPTGPSASEIRATAYLYQVMTVQPTEQDEKDFILKGVGWLNGYANSEKSANFAQLSFADKEQLLRGISNSTAGQNWLNTLLGYIFQAMLSPASYGGNPDGIGWAWLEHQAGFPMPEKGQRYFELPTRARIDLISRVNYDAKRLASSRNKSHQGTKKS”, “not soluble”.
To “MTNDKMLARIAALLRQAEGTDNPHEADAFMSTAQRLATAASIDLAVARSHAGNRSPAQAPTQRTITIGAAGTRGLRTYVQLFVLIAAANDVRCDVASNSTFVYAYGFAEDIDTSHALYASLVVQMVRASDAYLASGAHRPTPTITARLNFQLAFGARVGQRLADAREQTRQEATKDRDRPPGTAIALRDKDIELHEYYRRSSKARGAWRASRATAGYSSAARRAGDRAGRQARLGNNPELPGARAALGR” belongs “soluble”; to “MTNGQSPAGGVQSVERAFDILEIMASAGGSIGVSELADLAGLPLPTIHRLIRTLMNRGYVRQLPTRRYALGPKLIRLGESATQLIGAWSRPHLSELVRGTGETANMAVLDGTMAVYVAQVPSEHAMRMFTEVGRRVYPHCTGVGKAILMQLSNDAVRSLVGRTGMTTYTENSLTDPDMLIADLELSRNRGFAIDEGEQEIGVRCFSVPVPNAPTPTAISVSGPAARVTLESADHIVPLLKRVAKELGTEFDKNAAL”, “not soluble”.

For the origin of these results see the DeepSol protein solubility set.
